In the supplement of paper PMC5998384:

Legend:
HeLa Kyoto [1] = test: thermal stability score vs G1/S (z-score of summed log2 fold changes over temperatures); higher = more thermally stable than in G1/S
HeLa Kyoto [2] = test: solubility change mitosis vs G1/S (difference of NP-40 vs SDS log2 ratios) (log2 ratio difference); higher = more soluble in mitosis
HeLa Kyoto [3] = test: melting temperature (median over replicates), in situ; higher = more thermally stable
HeLa Kyoto [4] = test: solubility in G1/S (NP-40 vs SDS abundance) (log2 ratio); higher = more soluble; details: cell cycle stage: G1/S
[5] = cell cycle stage: early G1 (4.5 h after nocodazole release)
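Throughout, for melting temperature (median over replicates), in situ: HeLa Kyoto cells synchronized by double thymidine or nocodazole block, proteins quantified by TMT10plex mass spectrometry, three independent biological replicates.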
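Throughout, for solubility change mitosis vs G1/S (difference of NP-40 vs SDS log2 ratios): synchronized HeLa Kyoto cells (double thymidine block for G1/S, nocodazole release for mitosis), protein amounts in NP-40 versus SDS lysates quantified by mass spectrometry, three biological replicates.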
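Throughout, for solubility in G1/S (NP-40 vs SDS abundance): HeLa Kyoto cells arrested at G1/S by double thymidine block, proteins quantified by TMT10plex mass spectrometry in mild NP-40 versus SDS extracts, three biological replicates.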
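Throughout, for thermal stability score vs G1/S (z-score of summed log2 fold changes over temperatures): synchronized HeLa Kyoto cells, proteins quantified by TMT10plex mass spectrometry, three biological replicates, mitosis taken 0.5 h after nocodazole release, G1/S directly after double thymidine block.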

| Sequence | thermal stability score (HeLa Kyoto [1]; [5]) | thermal stability score (HeLa Kyoto [1]; cell cycle stage: mitosis) | solubility change mitosis (log2) (HeLa Kyoto [2]) | melting temperature (HeLa Kyoto [3]; cell cycle stage: G1/S) | melting temperature (HeLa Kyoto [3]; cell cycle stage: mitosis) | solubility in G1/S (log2) (HeLa Kyoto [4]) |
| --- | --- | --- | --- | --- | --- | --- |
| MAALMTPGTGAPPAPGDFSGEGSQGLPDPSPEPKQLPELIRMKRDGGRLSEADIRGFVAAVVNGSAQGAQIGAMLMAIRLRGMDLEETSVLTQALAQSGQQLEWPEAWRQQLVDKHSTGGVGDKVSLVLAPALAACGCKVPMISGRGLGHTGGTLDKLESIPGFNVIQSPEQMQVLLDQAGCCIVGQSEQLVPADGILYAARDVTATVDSLPLITASILSKKLVEGLSALVVDVKFGGAAVFPNQEQARELAKTLVGVGASLGLRVAAALTAMDKPLGRCVGHALEVEEALLCMDGAGPPDLRDLVTTLGGALLWLSGHAGTQAQGAARVAAALDDGSALGRFERMLAAQGVDPGLARALCSGSPAERRQLLPRAREQEELLAPADGTVELVRALPLALVLHELGAGRSRAGEPLRLGVGAELLVDVGQRLRRGTPWLRVHRDGPALSGPQSRALQEALVLSDRAPFAAPSPFAELVLPPQQ [TYMP] | -1.38 | -0.967 | -0.0175 | 55.7 °C | 57.5 °C | 0.479 |
| MAALTTLFKYIDENQDRYIKKLAKWVAIQSVSAWPEKRGEIRRMMEVAAADVKQLGGSVELVDIGKQKLPDGSEIPLPPILLGRLGSDPQKKTVCIYGHLDVQPAALEDGWDSEPFTLVERDGKLYGRGSTDDKGPVAGWINALEAYQKTGQEIPVNVRFCLEGMEESGSEGLDELIFARKDTFFKDVDYVCISDNYWLGKKKPCITYGLRGICYFFIEVECSNKDLHSGVYGGSVHEAMTDLILLMGSLVDKRGNILIPGINEAVAAVTEEEHKLYDDIDFDIEEFAKDVGAQILLHSHKKDILMHRWRYPSLSLHGIEGAFSGSGAKTVIPRKVVGKFSIRLVPNMTPEVVGEQVTSYLTKKFAELRSPNEFKVYMGHGGKPWVSDFSHPHYLAGRRAMKTVFGVEPDLTREGGSIPVTLTFQEATGKNVMLLPVGSADDGAHSQNEKLNRYNYIEGTKMLAAYLYEVSQLKD [CNDP2] | -6.23 | -11.6 | -0.148 | 54.4 °C | 53.4 °C | 0.253 |
| MAALYRPGLRLNWHGLSPLGWPSCRSIQTLRVLSGDLGQLPTGIRDFVEHSARLCQPEGIHICDGTEAENTATLTLLEQQGLIRKLPKYNNCWLARTDPKDVARVESKTVIVTPSQRDTVPLPPGGARGQLGNWMSPADFQRAVDERFPGCMQGRTMYVLPFSMGPVGSPLSRIGVQLTDSAYVVASMRIMTRLGTPVLQALGDGDFVKCLHSVGQPLTGQGEPVSQWPCNPEKTLIGHVPDQREIISFGSGYGGNSLLGKKCFALRIASRLARDEGWLAEHMLILGITSPAGKKRYVAAAFPSACGKTNLAMMRPALPGWKVECVGDDIAWMRFDSEGRLRAINPENGFFGVAPGTSATTNPNAMATIQSNTIFTNVAETSDGGVYWEGIDQPLPPGVTVTSWLGKPWKPGDKEPCAHPNSRFCAPARQCPIMDPAWEAPEGVPIDAIIFGGRRPKGVPLVYEAFNWRHGVFVGSAMRSESTAAAEHKGKIIMHDPFAMRPFFGYNFGHYLEHWLSMEGRKGAQLPRIFHVNWFRRDEAGHFLWPGFGENARVLDWICRRLEGEDSARETPIGLVPKEGALDLSGLRAIDTTQLFSLPKDFWEQEVRDIRSYLTEQVNQDLPKEVLAELEALERRVHKM [PCK2] | -2.32 | -1.91 | -0.0852 | 52.8 °C | 52.1 °C | 0.00231 |
| MAAMETETAPLTLESLPTDPLLLILSFLDYRDLINCCYVSRRLSQLSSHDPLWRRHCKKYWLISEEEKTQKNQCWKSLFIDTYSDVGRYIDHYAAIKKAWDDLKKYLEPRCPRMVLSLKEGAREEDLDAVEAQIGCKLPDDYRCSYRIHNGQKLVVPGLLGSMALSNHYRSEDLLDVDTAAGGFQQRQGLKYCLPLTFCIHTGLSQYIAVEAAEGRNKNEVFYQCPDQMARNPAAIDMFIIGATFTDWFTSYVKNVVSGGFPIIRDQIFRYVHDPECVATTGDITVSVSTSFLPELSSVHPPHYFFTYRIRIEMSKDALPEKACQLDSRYWRITNAKGDVEEVQGPGVVGEFPIISPGRVYEYTSCTTFSTTSGYMEGYYTFHFLYFKDKIFNVAIPRFHMACPTFRVSIARLEMGPDEYEEMEEEEEEEEEEDEDDDSADMDESDEDDEEERRRRVFDVPIRRRRCSRLF [FBXO3] | 0.236 | 0.497 | -0.0407 | 53.9 °C | 53.3 °C | -0.00208 |
| MAAPALGLVCGRCPELGLVLLLLLLSLLCGAAGSQEAGTGAGAGSLAGSCGCGTPQRPGAHGSSAAAHRYSREANAPGPVPGERQLAHSKMVPIPAGVFTMGTDDPQIKQDGEAPARRVTIDAFYMDAYEVSNTEFEKFVNSTGYLTEAEKFGDSFVFEGMLSEQVKTNIQQAVAAAPWWLPVKGANWRHPEGPDSTILHRPDHPVLHVSWNDAVAYCTWAGKRLPTEAEWEYSCRGGLHNRLFPWGNKLQPKGQHYANIWQGEFPVTNTGEDGFQGTAPVDAFPPNGYGLYNIVGNAWEWTSDWWTVHHSVEETLNPKGPPSGKDRVKKGGSYMCHRSYCYRYRCAARSQNTPDSSASNLGFRCAADRLPTMD [SUMF1] | -1.37 | 2.23 | 0.0674 | 53.7 °C | 55.1 °C | 0.277 |
| MAAPAPGLISVFSSSQELGAALAQLVAQRAACCLAGARARFALGLSGGSLVSMLARELPAAVAPAGPASLARWTLGFCDERLVPFDHAESTYGLYRTHLLSRLPIPESQVITINPELPVEEAAEDYAKKLRQAFQGDSIPVFDLLILGVGPDGHTCSLFPDHPLLQEREKIVAPISDSPKPPPQRVTLTLPVLNAARTVIFVATGEGKAAVLKRILEDQEENPLPAALVQPHTGKLCWFLDEAAARLLTVPFEKHSTL [PGLS] | -2.51 | -2.63 | 0.237 | 54.8 °C | 55.2 °C | 0.254 |
| MAAPAQPKKIVAPTVSQINAEFVTQLACKYWAPHIKKKSPFDIKVIEDIYEKEIVKSRFAIRKIMLLEFSQYLENYLWMNYSPEVSSKAYLMSICCMVNEKFRENVPAWEIFKKKPDHFPFFFKHILKAALAETDGEFSLHEQTVLLLFLDHCFNSLEVDLIRSQVQQLISLPMWMGLQLARLELELKKTPKLRKFWNLIKKNDEKMDPEAREQAYQERRFLSQLIQKFISVLKSVPLSEPVTMDKVHYCERFIELMIDLEALLPTRRWFNTILDDSHLLVHCYLSNLVRREEDGHLFSQLLDMLKFYTGFEINDQTGNALTENEMTTIHYDRITSLQRAAFAHFPELYDFALSNVAEVDTRESLVKFFGPLSSNTLHQVASYLCLLPTLPKNEDTTFDKEFLLELLVSRHERRISQIQQLNQMPLYPTEKIIWDENIVPTEYYSGEGCLALPKLNLQFLTLHDYLLRNFNLFRLESTYEIRQDIEDSVSRMKPWQSEYGGVVFGGWARMAQPIVAFTVVEVAKPNIGENWPTRVRADVTINLNVRDHIKDEWEGLRKHDVCFLITVRPTKPYGTKFDRRRPFIEQVGLVYVRGCEIQGMLDDKGRVIEDGPEPRPNLRGESRTFRVFLDPNQYQQDMTNTIQNGAEDVYETFNIIMRRKPKENNFKAVLETIRNLMNTDCVVPDWLHDIILGYGDPSSAHYSKMPNQIATLDFNDTFLSIEHLKASFPGHNVKVTVEDPALQIPPFRITFPVRSGKGKKRKDADVEDEDTEEAKTLIVEPHVIPNRGPYPYNQPKRNTIQFTHTQIEAIRAGMQPGLTMVVGPPGTGKTDVAVQIISNIYHNFPEQRTLIVTHSNQALNQLFEKIMALDIDERHLLRLGHGEEELETEKDFSRYGRVNYVLARRIELLEEVKRLQKSLGVPGDASYTCETAGYFFLYQVMSRWEEYISKVKNKGSTLPDVTEVSTFFPFHEYFANAPQPIFKGRSYEEDMEIAEGCFRHIKKIFTQLEEFRASELLRSGLDRSKYLLVKEAKIIAMTCTHAALKRHDLVKLGFKYDNILMEEAAQILEIETFIPLLLQNPQDGFSRLKRWIMIGDHHQLPPVIKNMAFQKYSNMEQSLFTRFVRVGVPTVDLDAQGRARASLCNLYNWRYKNLGNLPHVQLLPEFSTANAGLLYDFQLINVEDFQGVGESEPNPYFYQNLGEAEYVVALFMYMCLLGYPADKISILTTYNGQKHLIRDIINRRCGNNPLIGRPNKVTTVDRFQGQQNDYILLSLVRTRAVGHLRDVRRLVVAMSRARLGLYIFARVSLFQNCFELTPAFSQLTARPLHLHIIPTEPFPTTRKNGERPSHEVQIIKNMPQMANFVYNMYMHLIQTTHHYHQTLLQLPPAMVEEGEEVQNQETELETEEEAMTVQADIIPSPTDTSCRQETPAFQTDTTPSETGATSTPEAIPALSETTPTVVGAVSAPAEANTPQDATSAPEETK [AQR] | 0.352 | 2.51 | 0.0502 | 48 °C | 50 °C | -0.435 |
